In general, Tm refers to the temperature at which the thermal transition is half complete.

The conditions of the data set: Bos taurus; pH 4.2; Thermal; CD; Sodium acetate 0.01 M; NaCl 0.1 M; reversible: yes; whole UniProt chain shown.

B1: Ribonuclease pancreatic wild type, P61823 (protein)
chain: MALKSLVLLSLLVLVLLLVRVQPSLGKETAAAKFERQHMDSSTSAASSSNYCNQMMKSRNLTKDRCKPVNTFVHESLADVQAVCSQKNVACKNGQTNCYQSYSTMSITDCRETGSSKYPNCAYKTTQANKHIIVACEGNPYVPVHFDASV
In the case of B1, the Tm was found to be 56 °C.

The values are drawn from FireProtDB (doi:10.1002/pro.5560010709).
